Among the data in PMC5850324, “Interactions between the Hepatitis C Virus Nonstructural 2 Protein and Host Adaptor Proteins 1 and 4 Orchestrate Virus Release” (mBio, 2018) are ratio to parent values, retold here.

To fix the notation:
B1: GLuc2-NS2 (hepatitis C virus nonstructural 2 protein, wild type) [hepatitis C virus (J6/JFH genome)] / GLuc1-tagged μ subunit of the AP-4 complex [not stated] (parent complex)
chain 1: YDASVHGQIGAALLVLITLFTLTPGYKTLLSRFLWWLCYLLTLAEAMVQEWAPPMQVRGGRDGIIWAVAIFCPGVVFDITKWLLAVLGPAYLLKGALTRVPYFVRAHALLRMCTMVRHLAGGRYVQMVLLALGRWTGTYIYDHLTPMSDWAANGLRDLAVAVEPIIFSPMEKKVIVWGAETAACGDILHGLPVSARLGREVLLGPADGYTSKGWSLL
chain 2: MISQFFILSSKGDPLIYKDFRGDSGGRDVAELFYRKLTGLPGDESPVVMHHHGRHFIHIRHSGLYLVVTTSENVSPFSLLELLSRLATLLGDYCGSLGEGTISRNVALVYELLDEVLDYGYVQTTSTEMLRNFIQTEAVVSKPFSLFDLSSVGLFGAETQQSKVAPSSAASRPVLSSRSDQSQKNEVFLDVVERLSVLIASNGSLLKVDVQGEIRLKSFLPSGSEMRIGLTEEFCVGKSELRGYGPGIRVDEVSFHSSVNLDEFESHRILRLQPPQGELTVMRYQLSDDLPSPLPFRLFPSVQWDRGSGRLQVYLKLRCDLLSKSQALNVRLHLPLPRGVVSLSQELSSPEQKAELAEGALRWDLPRVQGGSQLSGLFQMDVPGPPGPPSHGLSTSASPLGLGPASLSFELPRHTCSGLQVRFLRLAFRPCGNANPHKWVRHLSHSDAYVIRI

The assay covers variants of B1. Kind of assay: PCA (protein-fragment complementation assay); parent: 1; read off a plot.
Regarding chain 1 L203A, the ratio to parent was roughly 0.62.

Turning to chain 1 L202A, the ratio to parent was roughly 0.57.

For chain 1 D207A, the ratio to parent is roughly 0.6.

With chain 1 L216A, the ratio to parent is roughly 0.56.

On to chain 1 L217A, for which the ratio to parent is roughly 0.52.

Consider chain 1 E200A, for which the ratio to parent was roughly 1.
